What was measured:
[1] = target: full-length DcaP from Acinetobacter baumannii AB307-0294 (DcaPfl) (Acinetobacter baumannii (strain AB307-0294)); test: SEC
[2] = target: full-length DcaP from Acinetobacter baumannii AB307-0294 (DcaPfl) (Acinetobacter baumannii (strain AB307-0294)); test: single channel electrophysiology in planar lipid bilayers
[3] = target: DcaP lacking 40 residues at the N-terminus of the mature protein (DcaP_(DN40)) (Acinetobacter baumannii (strain AB307-0294)); test: SEC
[4] = target: seleno-methionine substituted DcaP_(DN40) with L280M and L282M (Acinetobacter baumannii (strain AB307-0294)); test: crystal structure
[5] = target: barrel-only DcaP lacking the first 59 residues (DcaP_(Trunc)) (Acinetobacter baumannii (strain AB307-0294)); test: SEC

full-length DcaP from Acinetobacter baumannii AB307-0294 (DcaPfl) (natural protein)
stoichiometry N [1]: 3
stoichiometry N [2]: 3

DcaP lacking 40 residues at the N-terminus of the mature protein (DcaP_(DN40)) (domain or fragment)
stoichiometry N [3]: 3

seleno-methionine substituted DcaP_(DN40) with L280M and L282M (domain or fragment)
stoichiometry N [4]: 3

barrel-only DcaP lacking the first 59 residues (DcaP_(Trunc)) (domain or fragment)
stoichiometry N [5]: 3

— doi:10.1101/306035
